# Data from paper PMC5030626, “G-quadruplex aptamer targeting Protein A and its capability to detect Staphylococcus aureus demonstrated by ELONA”.
# Legend:
# Protein A, native [1] = target: T1, Protein A, native (Staphylococcus aureus, UniProt P38507 37-477); assay: ELONA; ELONA and bead assay: 100 mM NaCl, 20 mM Tris-HCl pH 7.6, 10 mM MgCl2, 5 mM KCl, 1 mM CaCl2, 0.005% Tween 20, 21 C; CD: 25 mM Britton-Robinson pH 7.6, 100 mM NaCl, 10 mM MgCl2, 1 mM CaCl2, 5 mM KCl; details: protein: native; label: 3'-biotin; G4 (parallel, di-/multimers) plus 5' imperfect hairpin
# [2] = target: T2, Protein A, recombinant (P7837) (Staphylococcus aureus, UniProt P02976 37-327); assay: as above; details: protein: recombinant
# Protein A, native [3] = target: T1, Protein A, native; assay: CD difference spectrum; ELONA and bead assay: 100 mM NaCl, 20 mM Tris-HCl pH 7.6, 10 mM MgCl2, 5 mM KCl, 1 mM CaCl2, 0.005% Tween 20, 21 C; CD: 25 mM Britton-Robinson pH 7.6, 100 mM NaCl, 10 mM MgCl2, 1 mM CaCl2, 5 mM KCl
# [4] = target: T2, Protein A, recombinant (P7837); assay: ELONA; signal in range of library control; ELONA and bead assay: 100 mM NaCl, 20 mM Tris-HCl pH 7.6, 10 mM MgCl2, 5 mM KCl, 1 mM CaCl2, 0.005% Tween 20, 21 C; CD: 25 mM Britton-Robinson pH 7.6, 100 mM NaCl, 10 mM MgCl2, 1 mM CaCl2, 5 mM KCl
binder,measurement,setting,value
PA#2/8 (3'Bio) (structured_DNA) DNA: ATACCAGCTTATTCAATTAGCAACATGAGGGGGATAGAGGGGGTGGGTTCTCTCGGCTACAATCGTAATCAGTTAG,binding result,"Protein A, native [1]",binds
same,Kd,"[2]; label: 3'-biotin, G4 (parallel, di-/multimers) plus 5' imperfect hairpin",101 ± 5.9 nM
PA#2/8 (5'Bio) (structured_DNA) DNA: ATACCAGCTTATTCAATTAGCAACATGAGGGGGATAGAGGGGGTGGGTTCTCTCGGCTACAATCGTAATCAGTTAG,Kd,"[2]; label: 5'-biotin, G4 (parallel, di-/multimers) plus 5' imperfect hairpin",190 ± 13 nM
PA#2/8 (unlabelled) (structured_DNA) DNA: ATACCAGCTTATTCAATTAGCAACATGAGGGGGATAGAGGGGGTGGGTTCTCTCGGCTACAATCGTAATCAGTTAG,binding result,"Protein A, native [3]; G4 (parallel, di-/multimers) plus 5' imperfect hairpin",binds
ATACCAGCTTATTCAATTAGCAACATGAGGGGGATAGAGGGGGTGGGTTC (structured_DNA) [PA#2/8[S1-50] (Bio)],binding result,"[4]; label: biotin (5' or 3'; 3' on cells), G4 plus 5' imperfect hairpin",no binding
ATACCAGCTTATTCAATTAGCAACATGAGGGGGATAGAGGGGGTGGGTTC (structured_DNA) [PA#2/8[S1-50] (unlabelled)],binding result,"Protein A, native [3]; G4 plus 5' imperfect hairpin",binds
ATACCAGCTTATTCAATTAGCAACATGAGGGGGATAGAGGGGG (structured_DNA) [PA#2/8[S1-43] (Bio)],binding result,"[4]; label: biotin (5' or 3'), G4, mainly monomer, plus 5' imperfect hairpin",no binding
ATACCAGCTTATTCAATTAGCAACATGAGGGGGATAGAGGGGG (structured_DNA) [PA#2/8[S1-43] (unlabelled)],binding result,"Protein A, native [3]; G4, mainly monomer, plus 5' imperfect hairpin",binds
PA#2/8[S1-58] (3'Bio) (structured_DNA) DNA: ATACCAGCTTATTCAATTAGCAACATGAGGGGGATAGAGGGGGTGGGTTCTCTCGGCT,Kd,"[2]; label: 3'-biotin, G4 plus 5' imperfect hairpin",11.3 ± 1.4 nM
PA#2/8[S1-58] (unlabelled) (structured_DNA) DNA: ATACCAGCTTATTCAATTAGCAACATGAGGGGGATAGAGGGGGTGGGTTCTCTCGGCT,binding result,"Protein A, native [3]; G4 plus 5' imperfect hairpin",binds
PA#2/8[S1-58] (5'Bio) (structured_DNA) DNA: ATACCAGCTTATTCAATTAGCAACATGAGGGGGATAGAGGGGGTGGGTTCTCTCGGCT,Kd,"[2]; label: 5'-biotin, G4 plus 5' imperfect hairpin",23.7 ± 2 nM
